We go through two substances from patent publication US20240261333A1, “NOVEL TARGETS FOR ENHANCING ANTI-TUMOR IMMUNITY” (THE BROAD INSTITUTE, INC., priority 2021, published 2024).

One assay concerns the target HSP90AB1 (human) (UniProt P08238). Put plainly: anti-FLAG co-IP from lysate of C-FLAG B3GNT2 cells, mass spectrometry.
A further assay concerns the target FBXO6 (human) (UniProt Q9NRD1). The assay is described as above.
A further assay addresses TRAFD1 (human) (UniProt O14545). The assay is described as above.
The next assay deals with STAU1 (human) (UniProt O95793). The assay is described as above.
A further assay concerns the target SFXN3 (human) (UniProt Q9BWM7). Described as above.
Another assay has as its target PSMB6 (human) (UniProt P28072). The assay is described as above.
For another assay, the target named is RCN1 (human) (UniProt Q15293). Described as above.
The target in another assay is KPNB1 (human) (UniProt Q14974). Described as above.
For the next assay, the target named is AIFM1 (human) (UniProt O95831). The description is as above.
For a further assay, the target named is ABCD1 (human) (UniProt P33897). The description is as above.
In another assay the target is IPO7 (human) (UniProt O95373). The description is as above.
Another assay deals with PDIA4 (human) (UniProt P13667). The description is as above.
For the next assay, the target named is DNAJA3 (human) (UniProt Q96EY1). The description is as above.
The next assay deals with ERP44 (human) (UniProt Q9BS26). The assay is described as above.
The target in the next assay is RPS6 (human) (UniProt P62753). The assay is described as above.
The next assay deals with LARP4 (human) (UniProt Q71RC2). The assay is described as above.
In another assay the target is NTPCR (human) (UniProt Q9BSD7). The description is as above.
The next assay deals with PGAM5 (human) (UniProt Q96HS1). The assay is described as above.
The next assay deals with H1FX (human) (UniProt Q92522). Described as above.
The target in a further assay is UBTF (human) (UniProt P17480). The description is as above.
In the next assay the target is LDHA (human) (UniProt P00338). The description is as above.
For a further assay, the target named is PPIA (UniProt P62937). The assay can be described thus: co-IP with mouse IgG control, mass spectrometry; lysate of C-FLAG B3GNT2 cells.
The target of another assay is FABP5 (UniProt Q01469). The description is as above.
A further assay concerns the target ENO1 (UniProt P06733). Described as above.
Another assay has as its target RPL36 (UniProt Q9Y3U8). The description is as above.
A further assay addresses RPL35A (UniProt P18077). Described as above.
The target of another assay is RPN1 (UniProt P04843). Described as above.
The next assay concerns the target RPLP2 (UniProt P05387). The description is as above.
Another assay has as its target CTSD (UniProt P07339). The assay is described as above.
Another assay addresses RPL11 (UniProt P62913). The description is as above.
The target in the next assay is STRAP (UniProt Q9Y3F4). The description is as above.
A further assay concerns the target RPS15A (UniProt P62244). The assay is described as above.
In another assay the target is S100A8 (UniProt P05109). Described as above.
For another assay, the target named is ATP5F1B (UniProt P06576). Described as above.
Another assay addresses RPL21 (UniProt P46778). Described as above.
The target of another assay is YWHAZ (UniProt P63104). The assay is described as above.
In the next assay the target is HBA1 (UniProt P69905). The assay is described as above.
A further assay addresses LYZ (UniProt P61626). The description is as above.

Sequence of NTPCR (human) (Q9BSD7 2-190 limits assumed): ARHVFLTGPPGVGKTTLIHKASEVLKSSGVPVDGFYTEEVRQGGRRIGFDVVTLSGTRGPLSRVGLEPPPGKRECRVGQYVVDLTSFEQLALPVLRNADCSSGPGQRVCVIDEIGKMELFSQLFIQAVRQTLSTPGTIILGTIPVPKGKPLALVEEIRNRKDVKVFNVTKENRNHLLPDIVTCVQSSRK
Sequence of H1FX (human) (Q92522 2-213 limits assumed): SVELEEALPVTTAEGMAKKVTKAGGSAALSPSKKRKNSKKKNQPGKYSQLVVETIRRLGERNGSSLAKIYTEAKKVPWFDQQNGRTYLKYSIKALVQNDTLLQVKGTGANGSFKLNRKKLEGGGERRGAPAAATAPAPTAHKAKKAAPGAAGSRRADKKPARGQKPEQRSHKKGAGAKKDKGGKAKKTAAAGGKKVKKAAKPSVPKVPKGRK
Sequence of FABP5 (Q01469 2-135 limits assumed): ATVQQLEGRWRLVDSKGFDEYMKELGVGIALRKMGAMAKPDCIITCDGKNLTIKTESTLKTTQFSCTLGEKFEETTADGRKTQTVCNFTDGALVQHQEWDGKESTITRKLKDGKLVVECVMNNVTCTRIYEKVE
Sequence of PGAM5 (human) (Q96HS1 whole entry): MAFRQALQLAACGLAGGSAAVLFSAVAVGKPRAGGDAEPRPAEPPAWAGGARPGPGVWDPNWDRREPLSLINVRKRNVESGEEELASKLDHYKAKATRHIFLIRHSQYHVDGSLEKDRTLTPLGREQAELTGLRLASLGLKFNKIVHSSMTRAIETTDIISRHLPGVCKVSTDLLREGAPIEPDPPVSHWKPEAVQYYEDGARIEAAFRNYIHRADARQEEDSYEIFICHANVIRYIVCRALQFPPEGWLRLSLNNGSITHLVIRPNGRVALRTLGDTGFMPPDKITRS
Sequence of RPN1 (P04843 24-607 limits assumed): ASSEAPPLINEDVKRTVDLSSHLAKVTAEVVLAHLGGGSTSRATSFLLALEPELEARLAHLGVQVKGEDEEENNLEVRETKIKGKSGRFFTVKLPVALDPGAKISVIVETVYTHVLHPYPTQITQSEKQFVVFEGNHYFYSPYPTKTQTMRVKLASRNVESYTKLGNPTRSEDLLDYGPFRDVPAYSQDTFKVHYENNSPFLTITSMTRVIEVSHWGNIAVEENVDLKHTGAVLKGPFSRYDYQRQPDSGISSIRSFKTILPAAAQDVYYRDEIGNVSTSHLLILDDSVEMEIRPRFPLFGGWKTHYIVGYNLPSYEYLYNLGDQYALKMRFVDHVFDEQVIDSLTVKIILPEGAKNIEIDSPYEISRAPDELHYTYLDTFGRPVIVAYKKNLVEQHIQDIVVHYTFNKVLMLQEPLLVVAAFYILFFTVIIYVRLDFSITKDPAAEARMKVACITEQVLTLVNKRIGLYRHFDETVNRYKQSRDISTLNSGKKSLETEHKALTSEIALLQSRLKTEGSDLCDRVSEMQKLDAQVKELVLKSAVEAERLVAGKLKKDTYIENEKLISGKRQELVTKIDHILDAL
Sequence of HBA1 (P69905 2-142 limits assumed): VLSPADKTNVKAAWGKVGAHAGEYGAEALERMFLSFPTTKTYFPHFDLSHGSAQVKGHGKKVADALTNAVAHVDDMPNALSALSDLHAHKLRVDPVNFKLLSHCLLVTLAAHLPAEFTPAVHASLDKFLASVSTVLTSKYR
Sequence of IPO7 (human) (O95373 whole entry): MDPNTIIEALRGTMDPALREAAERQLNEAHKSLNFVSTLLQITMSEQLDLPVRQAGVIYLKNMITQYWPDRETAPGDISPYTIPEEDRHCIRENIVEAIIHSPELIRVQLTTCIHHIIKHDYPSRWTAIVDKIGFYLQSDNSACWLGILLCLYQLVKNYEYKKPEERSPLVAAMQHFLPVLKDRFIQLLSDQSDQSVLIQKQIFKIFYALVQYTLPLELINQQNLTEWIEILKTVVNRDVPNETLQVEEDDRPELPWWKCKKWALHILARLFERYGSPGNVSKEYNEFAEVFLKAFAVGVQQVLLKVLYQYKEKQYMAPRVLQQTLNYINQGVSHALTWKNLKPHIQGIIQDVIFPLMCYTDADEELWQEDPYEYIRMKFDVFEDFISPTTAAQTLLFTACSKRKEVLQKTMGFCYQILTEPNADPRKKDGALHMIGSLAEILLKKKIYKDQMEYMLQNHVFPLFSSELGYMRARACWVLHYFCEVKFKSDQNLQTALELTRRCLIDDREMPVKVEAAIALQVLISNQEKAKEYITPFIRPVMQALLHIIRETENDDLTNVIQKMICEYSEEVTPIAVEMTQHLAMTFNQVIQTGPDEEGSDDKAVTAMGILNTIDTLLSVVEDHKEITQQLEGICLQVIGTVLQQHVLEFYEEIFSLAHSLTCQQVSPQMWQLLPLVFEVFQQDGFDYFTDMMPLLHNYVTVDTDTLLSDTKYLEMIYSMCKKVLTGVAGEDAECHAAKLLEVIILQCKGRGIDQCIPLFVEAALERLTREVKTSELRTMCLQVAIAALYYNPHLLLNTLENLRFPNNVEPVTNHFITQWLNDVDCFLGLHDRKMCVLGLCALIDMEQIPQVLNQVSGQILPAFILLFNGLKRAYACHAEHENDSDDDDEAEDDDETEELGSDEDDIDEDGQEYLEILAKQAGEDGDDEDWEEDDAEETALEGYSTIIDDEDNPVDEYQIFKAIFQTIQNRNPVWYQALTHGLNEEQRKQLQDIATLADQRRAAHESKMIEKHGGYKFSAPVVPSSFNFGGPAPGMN
Sequence of S100A8 (P05109 whole entry): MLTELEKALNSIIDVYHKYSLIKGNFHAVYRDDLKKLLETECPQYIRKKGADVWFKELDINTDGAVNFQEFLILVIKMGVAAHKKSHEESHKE
Sequence of PDIA4 (human) (P13667 21-645 limits assumed): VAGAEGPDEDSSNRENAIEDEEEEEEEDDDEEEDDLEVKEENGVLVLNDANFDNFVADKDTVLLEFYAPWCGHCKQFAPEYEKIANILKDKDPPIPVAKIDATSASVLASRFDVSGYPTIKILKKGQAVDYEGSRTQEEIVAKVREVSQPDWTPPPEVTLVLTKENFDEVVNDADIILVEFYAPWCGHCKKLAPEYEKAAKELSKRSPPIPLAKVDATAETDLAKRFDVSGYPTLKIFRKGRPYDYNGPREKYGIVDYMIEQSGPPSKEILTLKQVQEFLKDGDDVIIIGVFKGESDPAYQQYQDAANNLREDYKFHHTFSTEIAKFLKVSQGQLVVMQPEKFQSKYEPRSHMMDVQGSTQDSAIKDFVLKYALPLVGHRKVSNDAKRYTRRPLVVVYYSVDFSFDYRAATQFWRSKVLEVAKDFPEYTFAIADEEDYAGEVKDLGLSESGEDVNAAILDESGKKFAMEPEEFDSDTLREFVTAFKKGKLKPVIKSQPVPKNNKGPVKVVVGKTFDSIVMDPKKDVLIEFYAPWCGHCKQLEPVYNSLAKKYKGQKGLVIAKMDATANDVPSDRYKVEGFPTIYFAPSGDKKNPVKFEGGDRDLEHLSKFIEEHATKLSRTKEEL
Sequence of STAU1 (human) (O95793 other isoform, or with tags, fused parts or gaps limits assumed): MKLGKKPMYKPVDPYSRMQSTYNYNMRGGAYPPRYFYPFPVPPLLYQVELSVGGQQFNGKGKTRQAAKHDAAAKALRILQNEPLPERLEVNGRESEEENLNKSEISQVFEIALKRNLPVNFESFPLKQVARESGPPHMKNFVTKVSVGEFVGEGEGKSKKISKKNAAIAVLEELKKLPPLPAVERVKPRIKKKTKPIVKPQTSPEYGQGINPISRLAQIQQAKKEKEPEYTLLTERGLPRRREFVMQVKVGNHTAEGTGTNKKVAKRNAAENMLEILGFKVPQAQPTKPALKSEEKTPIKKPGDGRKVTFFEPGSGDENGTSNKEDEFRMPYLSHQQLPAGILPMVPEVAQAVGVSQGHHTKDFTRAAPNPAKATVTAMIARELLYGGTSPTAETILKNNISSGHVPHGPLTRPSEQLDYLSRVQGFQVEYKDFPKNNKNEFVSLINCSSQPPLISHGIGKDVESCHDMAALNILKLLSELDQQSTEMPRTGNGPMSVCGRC
Sequence of CTSD (P07339 65-412 limits assumed): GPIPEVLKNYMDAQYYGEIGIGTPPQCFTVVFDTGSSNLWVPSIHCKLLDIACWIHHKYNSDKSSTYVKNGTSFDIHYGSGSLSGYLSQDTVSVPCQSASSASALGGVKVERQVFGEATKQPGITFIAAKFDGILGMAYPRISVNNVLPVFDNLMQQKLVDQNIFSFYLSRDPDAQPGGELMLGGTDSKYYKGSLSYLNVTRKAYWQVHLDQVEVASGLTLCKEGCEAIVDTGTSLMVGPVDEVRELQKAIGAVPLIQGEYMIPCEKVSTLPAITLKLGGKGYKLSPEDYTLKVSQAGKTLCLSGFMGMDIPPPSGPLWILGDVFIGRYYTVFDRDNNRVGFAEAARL
Sequence of TRAFD1 (human) (O14545 2-582 limits assumed): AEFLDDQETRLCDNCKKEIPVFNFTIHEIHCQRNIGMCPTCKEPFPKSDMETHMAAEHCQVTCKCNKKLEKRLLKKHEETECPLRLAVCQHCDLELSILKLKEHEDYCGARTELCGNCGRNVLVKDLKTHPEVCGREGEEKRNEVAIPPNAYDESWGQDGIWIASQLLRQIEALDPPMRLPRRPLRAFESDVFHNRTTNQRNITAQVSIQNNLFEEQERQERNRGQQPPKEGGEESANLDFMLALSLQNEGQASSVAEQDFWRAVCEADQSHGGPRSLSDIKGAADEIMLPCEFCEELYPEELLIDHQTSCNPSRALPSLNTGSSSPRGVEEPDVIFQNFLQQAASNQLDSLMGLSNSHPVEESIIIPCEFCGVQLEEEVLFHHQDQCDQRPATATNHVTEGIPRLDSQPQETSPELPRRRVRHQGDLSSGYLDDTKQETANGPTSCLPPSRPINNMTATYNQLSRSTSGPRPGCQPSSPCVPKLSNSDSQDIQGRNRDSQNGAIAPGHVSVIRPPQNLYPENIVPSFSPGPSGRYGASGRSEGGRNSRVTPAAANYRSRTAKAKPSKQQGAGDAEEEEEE
Sequence of LYZ (P61626 19-148 limits assumed): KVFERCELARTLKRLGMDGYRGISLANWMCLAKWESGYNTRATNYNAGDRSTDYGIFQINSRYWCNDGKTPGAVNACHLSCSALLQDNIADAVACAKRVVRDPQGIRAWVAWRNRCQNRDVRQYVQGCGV

As to “C-terminal FLAG tagged B3GNT2 (from UniProt Q9NY97 1-397) (enzyme)”, the co-IP mass spectrometry count with HSP90AB1 (human) was determined as 11; in the assay with FBXO6 (human), 5; with TRAFD1 (human) it was 2; with STAU1 (human) it was 6; in the assay with SFXN3 (human), 2; with PSMB6 (human), 3. The co-IP mass spectrometry count with RCN1 (human) stood at 9; in the assay with KPNB1 (human) it was 7; in the assay with AIFM1 (human) it was 5; in the assay with ABCD1 (human), 2; with IPO7 (human), 9; with PDIA4 (human), 9. The co-IP mass spectrometry count in the assay with DNAJA3 (human) worked out at 2; with ERP44 (human), 2; with RPS6 (human) it was 20; with LARP4 (human), 2; with NTPCR (human), 2; with PGAM5 (human), 5. In addition, the co-IP mass spectrometry count was determined as 2 with H1FX (human), 2 with UBTF (human) and 4 with LDHA (human).
As for “IgG control (Millipore Sigma 12-371) (antibody)”, the co-IP mass spectrometry count was 0 in the assay with PPIA; 0 with FABP5; 2 with ENO1; 0 in the assay with RPL36; 0 with RPL35A; 0 with RPN1. The co-IP mass spectrometry count with RPLP2 came out at 0; with CTSD it was 0; with RPL11 it was 3; in the assay with STRAP, 0; with RPS15A it was 2; in the assay with S100A8, 5. Besides, the co-IP mass spectrometry count in the assay with ATP5F1B is 0; in the assay with RPL21, 5; in the assay with YWHAZ, 0; in the assay with HBA1, 0; with LYZ, 0.
